Patent US20250257142A1 (INVETX, published 2025)

Target: T1, extracellular domain of canine IL-31RA fused to murine IgG2A Fc (canine)
T1 construct: also called Canine IL-31RA-murine IgG2A Fc; Canine IL-31RA-mFc
T1 chain: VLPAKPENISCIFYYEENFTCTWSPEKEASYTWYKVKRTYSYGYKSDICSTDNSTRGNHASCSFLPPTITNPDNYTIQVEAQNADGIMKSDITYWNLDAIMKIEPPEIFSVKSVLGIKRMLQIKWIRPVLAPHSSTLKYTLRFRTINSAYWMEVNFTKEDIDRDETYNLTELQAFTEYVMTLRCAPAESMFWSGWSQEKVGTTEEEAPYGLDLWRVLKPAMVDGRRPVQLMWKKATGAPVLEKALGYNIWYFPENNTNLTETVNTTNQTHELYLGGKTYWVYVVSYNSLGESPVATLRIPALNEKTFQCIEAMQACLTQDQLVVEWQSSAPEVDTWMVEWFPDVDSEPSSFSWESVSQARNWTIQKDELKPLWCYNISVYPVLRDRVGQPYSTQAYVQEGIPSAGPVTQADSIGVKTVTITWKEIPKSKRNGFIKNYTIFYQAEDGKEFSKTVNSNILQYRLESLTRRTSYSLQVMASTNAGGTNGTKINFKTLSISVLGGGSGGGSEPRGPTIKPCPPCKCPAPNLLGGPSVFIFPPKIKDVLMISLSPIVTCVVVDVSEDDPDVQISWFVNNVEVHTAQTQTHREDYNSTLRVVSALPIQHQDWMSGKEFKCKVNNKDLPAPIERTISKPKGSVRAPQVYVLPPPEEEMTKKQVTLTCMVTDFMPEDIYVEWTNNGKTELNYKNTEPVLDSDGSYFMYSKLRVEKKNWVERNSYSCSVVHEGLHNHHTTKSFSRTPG
Experiment: SPR Biacore T200, antibody captured on anti-dog H+L chip, canine IL-31RA-mFc as analyte; relative affinity scale: *** 3 pM-100 pM, ** 101 pM-1 nM, * 1.1 nM-20 nM (avidity)
Procedure: The different heavy and light chain combinations were co-transfected into ExpiCHO cells using the ExpiCHO transfection kit (ThermoFisher; Cat. #A29133). Seven days following the transient transfection, the IgG in the conditioned medium was purified using MabSelect SuRe chromatography. The antibodies were buffer-exchanged into PBS, pH 7.4. The relative affinity of the variants was determined by SPR on a Biacore T200. The antibody was captured using a CM5 Series S chip amine coupled with an anti-dog H+L antibody (Jackson Immunoresearch). Canine IL-31RA-mFc (100 nM, 50 nM, 25 nM, 12.5 nM, 6.25 nM, 3.625 nM) solutions in 1×HBS-EP+ was flown over the sensor chip for a contact time of 120 s and a dissociation time of 600 s at a flow rate of […]. Double reference-subtracted sensorgrams were fitted to a 1:1 binding model using Biacore T200 Evaluation software. The canine IL-31RA antigen was both a dimer and aggregated so there were avidity effects with the measured affinities. […] Following the initial results with the single variants, a heavy chain containing the W53F variant and the M118I variant was synthesized and subcloned into pcDNA 3.4 (SEQ ID NO:18). The same methods as described above for expression and purification of the variant along with measuring the relative affinity were used to determine the relative affinity of the W53F/M118I heavy chain variant combined with the S95A light chain and the N94Q light chain variants.

B1: 109-49 heavy chain M118I variant with wild-type light chain (antibody, V domains shown)
VH: EVQLVESGGDLVKPGGSLRLSCVASGFTFDDYGMSWVRQAPGKGLQWVSGINWAGGTIGYADAVKGRFTISRDNARNTVYLQMNSLRAEDTAVYYCARESPLRLGDLGGDYFYYYYYIDVWGQGTLVTVSS
VL: EVVMIQTPLSLSVSPGEPASISCRASQSVSSRYLVWYLQKPGQSPQLLIYGTSSRATGVSDRFSGSGSGTDFTLRISRVEAEDVGVYYCQQYDNSPRTFGQGTKVEIKR
notes: Canine IgGB/kappa; signal peptides left out; also called M118I / Wild-type
- relative affinity (apparent KD by SPR): 0.003 to 0.1 nM

B2: 109-49 heavy chain W53F + M118I variant with light chain S95A variant (antibody, V domains shown)
VH: EVQLVESGGDLVKPGGSLRLSCVASGFTFDDYGMSWVRQAPGKGLQWVSGINFAGGTIGYADAVKGRFTISRDNARNTVYLQMNSLRAEDTAVYYCARESPLRLGDLGGDYFYYYYYIDVWGQGTLVTVSS
VL: EVVMIQTPLSLSVSPGEPASISCRASQSVSSRYLVWYLQKPGQSPQLLIYGTSSRATGVSDRFSGSGSGTDFTLRISRVEAEDVGVYYCQQYDNAPRTFGQGTKVEIKR
notes: Canine IgGB/kappa; signal peptides left out; also called W53F-M118I / S95A
- relative affinity (apparent KD by SPR): 1.1 to 20 nM

B3: 109-49 heavy chain W53F variant with wild-type light chain (antibody, V domains shown)
VH: EVQLVESGGDLVKPGGSLRLSCVASGFTFDDYGMSWVRQAPGKGLQWVSGINFAGGTIGYADAVKGRFTISRDNARNTVYLQMNSLRAEDTAVYYCARESPLRLGDLGGDYFYYYYYMDVWGQGTLVTVSS
VL: EVVMIQTPLSLSVSPGEPASISCRASQSVSSRYLVWYLQKPGQSPQLLIYGTSSRATGVSDRFSGSGSGTDFTLRISRVEAEDVGVYYCQQYDNSPRTFGQGTKVEIKR
notes: Canine IgGB/kappa; signal peptides left out; also called W53F / Wild-type
- relative affinity (apparent KD by SPR): 1.1 to 20 nM

B4: 109-49 heavy chain W53Y variant with wild-type light chain (antibody, V domains shown)
VH: EVQLVESGGDLVKPGGSLRLSCVASGFTFDDYGMSWVRQAPGKGLQWVSGINYAGGTIGYADAVKGRFTISRDNARNTVYLQMNSLRAEDTAVYYCARESPLRLGDLGGDYFYYYYYMDVWGQGTLVTVSS
VL: EVVMIQTPLSLSVSPGEPASISCRASQSVSSRYLVWYLQKPGQSPQLLIYGTSSRATGVSDRFSGSGSGTDFTLRISRVEAEDVGVYYCQQYDNSPRTFGQGTKVEIKR
notes: Canine IgGB/kappa; signal peptides left out; also called W53Y / Wild-type
- relative affinity (apparent KD by SPR): 1.1 to 20 nM

B5: 109-49 heavy chain M118I variant with light chain N94Q variant (antibody, V domains shown)
VH: EVQLVESGGDLVKPGGSLRLSCVASGFTFDDYGMSWVRQAPGKGLQWVSGINWAGGTIGYADAVKGRFTISRDNARNTVYLQMNSLRAEDTAVYYCARESPLRLGDLGGDYFYYYYYIDVWGQGTLVTVSS
VL: EVVMIQTPLSLSVSPGEPASISCRASQSVSSRYLVWYLQKPGQSPQLLIYGTSSRATGVSDRFSGSGSGTDFTLRISRVEAEDVGVYYCQQYDQSPRTFGQGTKVEIKR
notes: Canine IgGB/kappa; signal peptides left out; also called M118I / N94Q
- relative affinity (apparent KD by SPR): 0.003 to 0.1 nM

B6: 109-49 heavy chain W53F + M118I variant with light chain N94Q variant (antibody, V domains shown)
VH: EVQLVESGGDLVKPGGSLRLSCVASGFTFDDYGMSWVRQAPGKGLQWVSGINFAGGTIGYADAVKGRFTISRDNARNTVYLQMNSLRAEDTAVYYCARESPLRLGDLGGDYFYYYYYIDVWGQGTLVTVSS
VL: EVVMIQTPLSLSVSPGEPASISCRASQSVSSRYLVWYLQKPGQSPQLLIYGTSSRATGVSDRFSGSGSGTDFTLRISRVEAEDVGVYYCQQYDQSPRTFGQGTKVEIKR
notes: Canine IgGB/kappa; signal peptides left out; also called W53F-M118I / N94Q
- relative affinity (apparent KD by SPR): 1.1 to 20 nM

B7: 109-49 heavy chain M118L variant with wild-type light chain (antibody, V domains shown)
VH: EVQLVESGGDLVKPGGSLRLSCVASGFTFDDYGMSWVRQAPGKGLQWVSGINWAGGTIGYADAVKGRFTISRDNARNTVYLQMNSLRAEDTAVYYCARESPLRLGDLGGDYFYYYYYLDVWGQGTLVTVSS
VL: EVVMIQTPLSLSVSPGEPASISCRASQSVSSRYLVWYLQKPGQSPQLLIYGTSSRATGVSDRFSGSGSGTDFTLRISRVEAEDVGVYYCQQYDNSPRTFGQGTKVEIKR
notes: Canine IgGB/kappa; signal peptides left out; also called M118L / Wild-type
- relative affinity (apparent KD by SPR): 1.1 to 20 nM

B8: 109-49 wild-type heavy chain with light chain N94Q variant (antibody, V domains shown)
VH: EVQLVESGGDLVKPGGSLRLSCVASGFTFDDYGMSWVRQAPGKGLQWVSGINWAGGTIGYADAVKGRFTISRDNARNTVYLQMNSLRAEDTAVYYCARESPLRLGDLGGDYFYYYYYMDVWGQGTLVTVSS
VL: EVVMIQTPLSLSVSPGEPASISCRASQSVSSRYLVWYLQKPGQSPQLLIYGTSSRATGVSDRFSGSGSGTDFTLRISRVEAEDVGVYYCQQYDQSPRTFGQGTKVEIKR
notes: Canine IgGB/kappa; signal peptides left out; also called Wild-type / N94Q
- relative affinity (apparent KD by SPR): 0.101 to 1 nM
